According to US20220211857A1, “POLYPEPTIDE DERIVATIVE AND PREPARATION METHOD THEREOF” (NINGBO KUNPENG BIOTECH CO., LTD., priority 2019, published 2022):
Where a SMILES comes first, the peptide text is derived from it. The star is where a group is joined. X1 = O=C(O)CCCCCCCCCCCCCCC(=O)NC(CCC(=O)NCCOCCOCC(=O)NCCOCCOCC(=O)NCCn1cc(CCOC(=O)*)nn1)C(=O)O; X6 = O=C(O)CCCCCCCCCCCCCCC(=O)NC(CCC(=O)NCCOCCOCC(=O)NCCOCCOCCn1cc(CCOC(=O)*)nn1)C(=O)O; X4 = O=C(O)CCCCCCCCCCCCCCC(=O)NC(CCC(=O)NCCOCCOCCn1cc(CCOC(=O)*)nn1)C(=O)O

Key:
[1] = general background statement; cited from earlier work
[2] = subcutaneous administration or intramuscular injection, background statement; cited from earlier work
[3] = Pharmacokinetics studies of PTH-1 derivatives in rats (single subcutaneous injection, LC-MS/MS, NCA); type: in vivo; details: rat; for half-lives (in words): experiment of Example 10 repeated in the same way
Procedure: PTH-1 and L6-GFA16-PTH-1 were injected subcutaneously with a single administration of 8.6 μg/kg, respectively. Animals in each group were collected blood at 0 min, 5 min, 15 min, 30 min, 1 h, 2 h, and 4 h after administration. […] Exposure time of drugs in vivo was prolonged and exposure doses were increased.

GLP-1: glucose-dependent incretin polypeptide hormone; reference substance of Table 2
biological half-life in vivo [1]: 20 minutes

PTH: parathyroid hormone; PTH-1 is the reference substance of Table 3 (SVSEIQLMHNLGRHLNSMERVEWLRKRLQDVHNF; Amino Acid Sequence of PTH)
half-life [2]: about 12 hours

CC[C@H](C)[C@H](NC(=O)[C@H](CCC(=O)O)NC(=O)[C@H](CO)NC(=O)[C@@H](NC(=O)[C@@H](N)CO)C(C)C)C(=O)N[C@@H](CCC(N)=O)C(=O)N[C@@H](CC(C)C)C(=O)N[C@@H](CCSC)C(=O)N[C@@H](Cc1c[nH]cn1)C(=O)N[C@@H](CC(N)=O)C(=O)N[C@@H](CC(C)C)C(=O)NCC(=O)N[C@@H](CCCNC(=N)N)C(=O)N[C@@H](Cc1c[nH]cn1)C(=O)N[C@@H](CC(C)C)C(=O)N[C@@H](CC(N)=O)C(=O)N[C@@H](CO)C(=O)N[C@@H](CCSC)C(=O)N[C@@H](CCC(=O)O)C(=O)N[C@@H](CCCNC(=N)N)C(=O)N[C@H](C(=O)N[C@@H](CCC(=O)O)C(=O)N[C@@H](Cc1c[nH]c2ccccc12)C(=O)N[C@@H](CC(C)C)C(=O)N[C@@H](CCCNC(=N)N)C(=O)N[C@@H](CCCCNC(=O)OCCc1cn(CCOCCOCCNC(=O)COCCOCCNC(=O)CCC(NC(=O)CCCCCCCCCCCCCCC(=O)O)C(=O)O)nn1)C(=O)N[C@@H](CCCNC(=N)N)C(=O)N[C@@H](CC(C)C)C(=O)N[C@@H](CCC(N)=O)C(=O)N[C@@H](CC(=O)O)C(=O)N[C@H](C(=O)N[C@@H](Cc1c[nH]cn1)C(=O)N[C@@H](CC(N)=O)C(=O)N[C@@H](Cc1ccccc1)C(=O)O)C(C)C)C(C)C (some centres unmarked) [L5-GFA16-PTH] (H-SVSEIQLMHNLGRHLNSMERVEWLRK(X6)RLQDVHNF-OH)
half-lives (in words) [3]: significantly prolonged

CC[C@H](C)[C@H](NC(=O)[C@H](CCC(=O)O)NC(=O)[C@H](CO)NC(=O)[C@@H](NC(=O)[C@@H](N)CO)C(C)C)C(=O)N[C@@H](CCC(N)=O)C(=O)N[C@@H](CC(C)C)C(=O)N[C@@H](CCSC)C(=O)N[C@@H](Cc1c[nH]cn1)C(=O)N[C@@H](CC(N)=O)C(=O)N[C@@H](CC(C)C)C(=O)NCC(=O)N[C@@H](CCCNC(=N)N)C(=O)N[C@@H](Cc1c[nH]cn1)C(=O)N[C@@H](CC(C)C)C(=O)N[C@@H](CC(N)=O)C(=O)N[C@@H](CO)C(=O)N[C@@H](CCSC)C(=O)N[C@@H](CCC(=O)O)C(=O)N[C@@H](CCCNC(=N)N)C(=O)N[C@H](C(=O)N[C@@H](CCC(=O)O)C(=O)N[C@@H](Cc1c[nH]c2ccccc12)C(=O)N[C@@H](CC(C)C)C(=O)N[C@@H](CCCNC(=N)N)C(=O)N[C@@H](CCCCNC(=O)OCCc1cn(CCNC(=O)COCCOCCNC(=O)COCCOCCNC(=O)CCC(NC(=O)CCCCCCCCCCCCCCC(=O)O)C(=O)O)nn1)C(=O)N[C@@H](CCCNC(=N)N)C(=O)N[C@@H](CC(C)C)C(=O)N[C@@H](CCC(N)=O)C(=O)N[C@@H](CC(=O)O)C(=O)N[C@H](C(=O)N[C@@H](Cc1c[nH]cn1)C(=O)N[C@@H](CC(N)=O)C(=O)N[C@@H](Cc1ccccc1)C(=O)O)C(C)C)C(C)C (some centres unmarked) [L6-GFA16-PTH] (H-SVSEIQLMHNLGRHLNSMERVEWLRK(X1)RLQDVHNF-OH)
Tmax ([3]; in vivo, sc, s.c. 8.6 μg/kg, summary of Table 3, read-out: peak times): ~1.6 h

CC[C@H](C)[C@H](NC(=O)[C@H](CCC(=O)O)NC(=O)[C@H](CO)NC(=O)[C@@H](NC(=O)[C@@H](N)CO)C(C)C)C(=O)N[C@@H](CCC(N)=O)C(=O)N[C@@H](CC(C)C)C(=O)N[C@@H](CCSC)C(=O)N[C@@H](Cc1c[nH]cn1)C(=O)N[C@@H](CC(N)=O)C(=O)N[C@@H](CC(C)C)C(=O)NCC(=O)N[C@@H](CCCNC(=N)N)C(=O)N[C@@H](Cc1c[nH]cn1)C(=O)N[C@@H](CC(C)C)C(=O)N[C@@H](CC(N)=O)C(=O)N[C@@H](CO)C(=O)N[C@@H](CCSC)C(=O)N[C@@H](CCC(=O)O)C(=O)N[C@@H](CCCNC(=N)N)C(=O)N[C@H](C(=O)N[C@@H](CCC(=O)O)C(=O)N[C@@H](Cc1c[nH]c2ccccc12)C(=O)N[C@@H](CC(C)C)C(=O)N[C@@H](CCCNC(=N)N)C(=O)N[C@@H](CCCCNC(=O)OCCc1cn(CCOCCOCCNC(=O)CCC(NC(=O)CCCCCCCCCCCCCCC(=O)O)C(=O)O)nn1)C(=O)N[C@@H](CCCNC(=N)N)C(=O)N[C@@H](CC(C)C)C(=O)N[C@@H](CCC(N)=O)C(=O)N[C@@H](CC(=O)O)C(=O)N[C@H](C(=O)N[C@@H](Cc1c[nH]cn1)C(=O)N[C@@H](CC(N)=O)C(=O)N[C@@H](Cc1ccccc1)C(=O)O)C(C)C)C(C)C (some centres unmarked) [L2-GFA16-PTH] (H-SVSEIQLMHNLGRHLNSMERVEWLRK(X4)RLQDVHNF-OH)
half-lives (in words) [3]: significantly prolonged
